Measurements: US9308238B2, “Compositions and methods for modulating EMT and uses thereof” (Whitehead Institute for Biomedical Research, priority 2010, dated 2016)

B1: SFRP1: Recombinant human SFRP1 protein (R&D Systems), secreted decoy receptor binding canonical and non-canonical Wnt ligands (protein, UniProt Q8N474 32-314, looked up)
Secreted frizzled-related …: SEYDYVSFQSDIGPYQSGRFYTKPPQCVDIPADLRLCHNVGYKKMVLPNLLEHETMAEVKQQASSWVPLLNKNCHAGTQVFLCSLFAPVCLDRPIYPCRWLCEAVRDSCEPVMQFFGFYWPEMLKCDKFPEGDVCIAMTPPNATEASKPQGTTVCPPCDNELKSEAIIEHLCASEFALRMKIKEVKKENGDKKIVPKKKKPLKLGPIKKKDLKKLVLYLKNGADCPCHQLDNLSHHFLIMGRKVKSQYLLTAIHKWDKKNKEFKNFMKKMKNHECPTFQSVFK
B2: BMP4: Recombinant BMP4 protein obtained from Stemgent (protein, UniProt P12644 293-408, looked up)
Bone morphogenetic protein 4: SPKHHSQRARKKNKNCRRHSLYVDFSDVGWNDWIVAPPGYQAFYCHGDCPFPLADHLNSTNHAIVQTLVNSVNSSIPKACCVPTELSAISMLYLDEYDKVVLKNYQEMVVEGCGCR

Assays:
Type in all cases: cell-based, human
[1] = tested on: HMLE^24+ cells; test: Boyden chamber migration assay, HMLE^24+ cells
Method: (§1) FIGS. 3A-3E. Autocrine Signaling controls migration and mammosphere formation.
FIGS. 5A-5H. Concomitant stimulation of Wnt and TGF-beta pathways allows HMLE^24+ cells to enter into a mesenchymal and SC-like state. (FIG. 5A) RT-PCR: N-Cadherin, Zeb1 and Zeb2, L32 was loading control, n=3. Prior RNA isolation, HMLE^24+-shGFP or -shSFRP1 (stable knockdown of SFRP1, FIG. 12A) cells were treated for 3 days with daily doses of indicated factors: anti-DKK1 antibody (10 μg/ml), anti-E-Cadherin antibody (1 μg/ml), TGF-beta 1 (5 ng/ml), Wnt5a (250 ng/ml), (FIG. 5B) Brightfield microscopy: images of control, TGF-beta- and iEMT-cocktail treated HMLE^24+ cells after 14 days of treatment as indicated (see also FIG. 12D). (FIG. 5C) RT-PCR: Zeb1, Zeb2, E-Cadherin and N-Cadherin, L32 was loading control, n=3. After 14 day treatment, cells were expanded in absence of further stimulation for 4 passages. Shown are PBS-treated control HMLE^24+-shGFP and HMLE^24+-shSFRP1 cells, two HMLE^24+-shGFP cultures treated with TGF-beta 1 (TGF-β-a and -b), two HMLE^24+-shSFRP1 cultures treated with the iEMT-cocktail (iEMT-a and -b). (FIG. 5D) Immunoblot: EMT markers and associated autocrine pathways, cells generated as described in (C). (FIG. 5E) Migration (Boyden Chamber Assay) and Mammosphere Assay: cells generated as indicated in (C), *control vs. TGF-beta treatment, p<1×10^−4, **control vs. iEMT-treatment, p<1×10^−9, n(migration)=3, n(mammospheres)/1000 cells, n=7. (FIG. 5F) Flow cytometry: CD44 and CD24 cell-surface marker expression in control, TGF-beta-a and iEMT-a cells generated as described in (C). (FIG. 5G) Lung metastasis: cells expanded for 8 passages after cessation of treatment as described in (C) were transformed with RAS; 1.0×10^5 cells were injected into the mammary fat pads of mice; GFP-labeled metastases on the surface of the lungs were quantified; *control vs. all other groups, p<0.05, n=5 mice/group. […]

[2] = tested on: MSP-RAS cells; test: Boyden chamber migration assay, MSP-RAS cells; details: SFRP1 1 μg/ml, BMP4 0.5 μg/ml
Method: FIGS. 4A-4G. Autocrine Signaling controls tumorigenicity and metastasis of MSP-RAS cells. (FIG. 4A) Migration assay: RAS-transformed MSP (MSP-RAS) were seeded in Boyden Chamber migration assays and recombinant SFRP1 (1 μg/ml) and BMP4 protein (0.5 μg/ml) were added; *control vs. single treatment, p<1×10^−8, **single vs. double treatment with SFRP1 and BMP4 (S+B), p<1×10^−4, n=3. […] (FIG. 4E) Lung metastasis: fluorescence microscopy images of the major left lung lobe showing GFP-expressing metastatic nodules and quantification of the number of lung surface metastases; *control vs. SFRP1 treatment, p<0.05, **SFRP1 vs. BMP4 or double treatment (S+B), p<0.05, n=5 mice/group. (FIG. 4F) Liver metastasis: fluorescence microscopy images of the liver surface showing GFP-expressing micro-metastatic nodules after implantation of cells as described in (D) and quantification: 5 fields of liver surface were counted per mouse, *control vs. single treatment, p<0.05, **single vs. double treatment (S+B), p<0.05, n=5 mice/group. […]

[3] = tested on: HTwist and MSP cells; test: Boyden chamber migration assay, HTwist and MSP cells
Method: as §1
FIGS. 10A-10E. […] (FIG. 10C) Mammosphere assay: HTwist cells were treated daily during mammosphere formation (5 days) with proteins as described in (B); *control vs. single treatment, p<1×10^−5, **single vs. double-treatment, p<0.01, n(mammospheres)/1000 cells, n=6, (FIG. 10D) Migration Assay: HTwist and MSP cells were seeded into Boyden Chambers in the presence of TGF-beta Receptor I inhibitors A83-01 and SB431542 (SB43, both at 10 μM). (FIG. 10E) Mammosphere Assay: HTwist and MSP were treated daily during mammosphere formation (5 days) with BMP4 (0.5 μg/ml), SB431542 (10 μM) or a combination of both, n(mammospheres)/1000 cells, n=6.
Migration and invasion assays. For migration assays, 2×10^4 cells were seeded into 24-well cell culture inserts with 8-μm pores (Boyden Chambers, BD Falcon). For invasion assays, matrigel-coated inserts (BD Falcon) were used. After 12-48 hr, the cells on the upper surface of the filters were removed with a cotton swab. For visualization, cells on lower filter surfaces were fixed and stained with a Diff-Quick staining kit (Dade Behring).

[4] = tested on: HTwist cells; test: Boyden chamber migration assay, HTwist cells (single vs combined proteins); details: DKK1 1 μg/ml, SFRP1, BMP4 0.5 μg/ml
Method: Migration and invasion assays. For migration assays, 2×10^4 cells were seeded into 24-well cell culture inserts with 8-μm pores (Boyden Chambers, BD Falcon). […] After 12-48 hr, the cells on the upper surface of the filters were removed with a cotton swab. For visualization, cells on lower filter surfaces were fixed and stained with a Diff-Quick staining kit (Dade Behring).

Row | Molecule | increase in ability to migrate vs untreated control cells ([1]; after 14 day treatment) | motility of HMLE^24+ cells upon addition of protein ([1]; 0.5 μg/ml in growth medium) | decrease of motility in vitro [2] [fold] | reduction of migration ([3]; at the highest concentration) [fold] | reduction of migration, single vs combined proteins [4] [fold] | maximum reduction of migration ([3]; HTwist or MSP cells) [fold]
1 | TGF-beta 1: recombinant TGF-beta 1 protein, used at 5 ng/ml | not in motility | – | – | – | – | –
2 | B1 | – | not further reduced | 9 | 20 | 5 | –
3 | B2 | – | – | 4 | – | 2 | ≤ 2
